Legend:
[1] = biological target: V2R-βarr1 complex (Homo sapiens (Human). ; Rattus …, UniProt P30518;P29066); assay: co-IP
[2] = biological target: C5aR1-βarr1 complex (Homo sapiens (Human). ; Rattus …, UniProt P21730;P29066); assay: co-IP

- binding result [1]: binds
- binding result [2]: binds
B1: Intrabody30 (scFv, V domains shown)
VH: EVQLVESGGGLVQPGGSLRLSCAASGFNVYSSSIHWVRQAPGKGLEWVASISSYYGYTYYADSVKGRFTISADTSKNTAYLQMNSLRAEDTAVYYCARSRQFWYSGLDYWGQGTLVTVSS
VL: DIQMTQSPSSLSASVGDRVTITCRASQSVSSAVAWYQQKPGKAPKLLIYSASSLYSGVPSRFSGSRSGTDFTLTISSLQPEDFATYYCQQYKYVPVTFGQGTKVEIK

— paper doi:10.1101/651463 (bioRxiv, 2019)
